Results on one substance are retold here after patent US20210163900.

The data set relates to T1, MTA1c (MTA1/MTA9/p1/p2 complex) (Tetrahymena thermophila).
T1 sequence 1: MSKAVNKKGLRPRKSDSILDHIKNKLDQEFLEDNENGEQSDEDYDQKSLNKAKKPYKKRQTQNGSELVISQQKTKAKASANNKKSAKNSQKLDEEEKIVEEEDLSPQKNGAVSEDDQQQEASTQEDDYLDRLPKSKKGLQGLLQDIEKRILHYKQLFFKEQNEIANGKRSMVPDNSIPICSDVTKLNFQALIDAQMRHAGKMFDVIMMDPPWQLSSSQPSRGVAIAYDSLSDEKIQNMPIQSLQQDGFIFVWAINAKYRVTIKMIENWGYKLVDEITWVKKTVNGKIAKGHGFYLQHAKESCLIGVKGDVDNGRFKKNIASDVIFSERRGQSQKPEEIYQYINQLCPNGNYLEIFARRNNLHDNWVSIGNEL
T1 sequence 2: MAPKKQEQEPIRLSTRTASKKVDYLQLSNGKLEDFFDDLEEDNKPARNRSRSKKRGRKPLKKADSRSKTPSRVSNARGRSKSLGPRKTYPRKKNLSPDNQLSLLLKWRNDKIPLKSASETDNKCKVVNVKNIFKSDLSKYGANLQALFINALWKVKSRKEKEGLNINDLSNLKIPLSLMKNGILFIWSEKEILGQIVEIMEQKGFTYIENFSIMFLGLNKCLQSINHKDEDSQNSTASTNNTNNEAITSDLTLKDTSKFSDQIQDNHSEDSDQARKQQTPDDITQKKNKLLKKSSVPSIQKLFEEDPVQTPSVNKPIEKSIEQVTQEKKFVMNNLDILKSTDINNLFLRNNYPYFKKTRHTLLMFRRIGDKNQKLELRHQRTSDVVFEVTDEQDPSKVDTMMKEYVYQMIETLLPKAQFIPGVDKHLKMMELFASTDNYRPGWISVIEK
T1 sequence 3: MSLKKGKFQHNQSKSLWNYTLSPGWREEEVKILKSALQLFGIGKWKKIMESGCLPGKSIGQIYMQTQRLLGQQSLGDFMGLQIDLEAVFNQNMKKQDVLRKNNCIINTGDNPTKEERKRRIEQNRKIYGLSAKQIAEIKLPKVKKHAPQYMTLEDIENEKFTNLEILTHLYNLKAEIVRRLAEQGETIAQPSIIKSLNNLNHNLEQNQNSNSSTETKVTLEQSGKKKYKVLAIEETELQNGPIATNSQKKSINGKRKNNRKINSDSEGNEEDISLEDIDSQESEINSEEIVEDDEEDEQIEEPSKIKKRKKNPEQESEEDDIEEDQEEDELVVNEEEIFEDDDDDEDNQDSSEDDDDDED
T1 sequence 4: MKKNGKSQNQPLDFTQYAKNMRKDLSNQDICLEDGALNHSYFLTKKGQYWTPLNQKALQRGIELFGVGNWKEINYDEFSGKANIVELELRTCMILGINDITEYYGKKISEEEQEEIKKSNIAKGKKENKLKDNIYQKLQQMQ
The following applies: [3H]SAM assay, reference substrate.

27 bp dsDNA with two ApT motifs showed an activity (relative activity) of 1.
